Patent publication US20110171205A1

Molecular target: hSlo, human pore-forming α-subunit of the high conductance calcium-activated potassium channel (maxi-K) (human) (UniProt Q12791)
Assay: cell-based or functional assay

Sequence of UniProt Q12791 (Q12791 whole entry): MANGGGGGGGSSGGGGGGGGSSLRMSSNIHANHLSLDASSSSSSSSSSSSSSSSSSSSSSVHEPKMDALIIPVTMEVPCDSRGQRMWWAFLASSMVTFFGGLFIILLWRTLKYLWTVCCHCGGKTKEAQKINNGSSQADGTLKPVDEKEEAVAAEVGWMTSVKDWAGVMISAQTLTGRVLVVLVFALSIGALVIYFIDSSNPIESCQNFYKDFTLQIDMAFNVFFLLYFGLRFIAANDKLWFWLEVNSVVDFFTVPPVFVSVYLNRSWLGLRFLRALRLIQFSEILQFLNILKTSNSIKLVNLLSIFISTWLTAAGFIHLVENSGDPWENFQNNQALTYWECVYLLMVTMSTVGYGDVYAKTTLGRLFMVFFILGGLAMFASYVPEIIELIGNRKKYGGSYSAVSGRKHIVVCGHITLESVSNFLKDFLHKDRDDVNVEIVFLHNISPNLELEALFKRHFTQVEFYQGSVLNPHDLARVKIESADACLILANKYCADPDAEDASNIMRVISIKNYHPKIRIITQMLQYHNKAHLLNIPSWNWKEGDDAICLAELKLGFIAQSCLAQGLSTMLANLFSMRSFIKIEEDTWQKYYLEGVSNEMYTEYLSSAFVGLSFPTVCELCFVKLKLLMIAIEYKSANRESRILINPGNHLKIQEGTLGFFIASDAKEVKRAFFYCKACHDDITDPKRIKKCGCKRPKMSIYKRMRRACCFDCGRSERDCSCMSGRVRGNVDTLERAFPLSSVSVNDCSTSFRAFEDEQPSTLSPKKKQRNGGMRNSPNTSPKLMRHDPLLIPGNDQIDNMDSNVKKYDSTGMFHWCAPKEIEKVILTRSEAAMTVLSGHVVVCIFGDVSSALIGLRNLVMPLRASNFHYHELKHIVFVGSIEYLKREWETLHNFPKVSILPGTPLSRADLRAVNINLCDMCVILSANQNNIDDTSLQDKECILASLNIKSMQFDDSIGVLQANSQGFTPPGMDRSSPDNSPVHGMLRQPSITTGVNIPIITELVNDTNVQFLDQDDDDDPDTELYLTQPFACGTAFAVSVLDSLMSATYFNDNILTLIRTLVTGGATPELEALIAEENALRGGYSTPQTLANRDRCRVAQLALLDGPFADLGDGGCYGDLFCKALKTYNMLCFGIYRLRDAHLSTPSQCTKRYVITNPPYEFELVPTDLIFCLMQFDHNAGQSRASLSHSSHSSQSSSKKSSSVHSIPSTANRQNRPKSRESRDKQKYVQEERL

| Substance | block of hSlo current (whole cell patch) at 300 nM toxin |
| --- | --- |
| charybdotoxin (from UniProt P13487 23-59) (peptide) | > 90% |
| iberiotoxin (from UniProt P24663 1-37) (peptide) | > 90% |
